Measured values reported in article PMC12377726 (Proceedings of the National Academy of Sciences of the …, 2025).
Residue numbers refer to the chain shown, from its start.

B1: G001_gp1_V10_VRC01c_159 (antibody, V domains shown)
VH: QVQLVQSGAEVKKPGASVKVSCKASGYTFADYYIHWVRQAPGQGLEWMGWINPNSGGTNYAQKFQGRVTMTRDTSITTAYMELSRLGSDDTAVYYCARAYYGDYGDYWGQGTLVTVSS
VL: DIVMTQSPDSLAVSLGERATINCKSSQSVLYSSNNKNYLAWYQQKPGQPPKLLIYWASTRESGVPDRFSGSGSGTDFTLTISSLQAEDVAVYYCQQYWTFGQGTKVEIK
B2: G001_gp1_V10_VRC01c_164 (antibody, V domains shown)
VH: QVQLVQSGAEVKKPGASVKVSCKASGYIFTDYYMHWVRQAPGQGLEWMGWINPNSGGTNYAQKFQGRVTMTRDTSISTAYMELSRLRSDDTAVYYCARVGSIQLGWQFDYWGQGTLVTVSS
VL: EIVMTQSPATLSVSPGERATLSCRASQSVSSNLAWYQQIPGQAPRLLIYGTSTRATGIPARFSGSGSGTEFTLTISSLQSEDFAVYYCQQYETFGQGTKLEIK
B3: G001_gp1_V10_VRC01c_2021-0086 (antibody, V domains shown)
VH: not shown
VL: B2 VL with I39K, T51A, E92Q
B4: G001_gp1_V10_VRC01c_163 (antibody, V domains shown)
VH: not shown
VL: DIVMTQSPDSLAVSLGERATINCKSSQSVYYSSNKKNYLAWYQQKPGQPPKLLIYWTSTRESGVPDRFSGSGSGTDFTLTISSLQAEDVAVYYCQQYWTFGQGTKVEIK
B5: G001_gp1_V10_VRC01c_167 (antibody, V domains shown)
VH: QVQLVQSGAEVKKPGASVKVSCKASGYTFTGYYMHWVRQAPGQGLEWMGWINPNSGGTNYAQKFQGRVTMTRDTSITTAYMELTRLISDDTAVYYCASPASIPAAGSFAFDIWGQGTMVTVSS
VL: EIVLTQSPGTLSLSPGERATLSCRASQSVGSSYLTWYQQKPGQAPRLLIYGASSRATGIPDRFSGSGSGTDFTLTISGLEPEDFAVYYCQQYETFGQGTKVEIK
B6: G001_gp1_V10_VRC01c_2021-0092 (antibody, V domains shown)
VH: QVQLVQSGAEVKKPGASVKVSCKASGYTFTGYYMHWVRQAPGHGLEWMGWINPNSGGSNYAQRFQGWVTMTRDTSISTAYMELTRLRSDDTAVYYCARELLAAAGTVFDYWGQGTLVTVSS
VL: B5 VL with G30S, T35A, G78R, K104N
B7: G001_gp1_V10_VRC01c_171 (antibody, V domains shown)
VH: QVQLVQSGAEVKRPGASVKVSCKASGYTFTDYYIHWVRQAPGQGLEWMGWINPNSGGTNYARKFQGRVTMTRHTSIGTAYMELSRLRSDDTAVYYCARHIVAAGTWAFDIWGQGTMVTVSS
VL: B5 VL with G30S, T35A, S64R, G78R
B8: G001_gp1_V10_VRC01c_172 (antibody, V domains shown)
VH: QVQLVQSGAEVKKPGASVKVSCKASGYTFTGYYFYWVRQAPGQGLEWMGWINPNSGGTNSPQKFQGRVSMTRDTSISTAYMEVSSLRSDDTAVYYCARRFTSMGVALDYWGQGTLVTVSS
VL: B5 VL with G30S, Y33S, T35A, Y50F, A52T, G78R, E93D, T94S, K100R, V101L
B9: G001_gp1_V10_VRC01c_184 (antibody, V domains shown)
VH: QVQLVQSGAEVKKPGASVKVSCKASGYTFTAYYMHWVRQAPGQGLEWMGWINPNSGGTNYAQKFQGRVTMTRDTSITTAYMELSRLRSDDTAVYYCAIESVVRHSWFDPWGQGTLVTVSS
VL: B5 VL with S28N, G30S, T35A, G51Y, S54I, D71A, G78R, T94A
B10: G001_gp1_V10_VRC01c_183 (antibody, V domains shown)
VH: QVHPVQSGAEVKKPGASVKVSCEASGYTFSGYYMHWVRQAPGQGLEWMGWINLNSGGTNYAQKFQDRVTMTRDTSISTAYMELSSLRSDDTAFYYCAHNGGNGGTWYFHYWGQGTLVTVSS
VL: B5 VL with G30S, S31N, S32N, T35A, S54R, S68T, G78R, F84S, Q97P, E102D
B11: G001_gp1_V10_VRC01c_170 (antibody, V domains shown)
VH: QVQLVQSGAEVKKPGASVKVSCKASGYTFTDYYMHWVRQAPGQGLEWMGWINPNSGGTNYAQKFQDRVTMTRDTSISTGYMELRRLRSDDTAVYYCASHHLTSQGPWWFDPWGQGTLLTVSS
VL: B5 VL with G30S, T35V, S66R, G78R, P81S, Y88F
B12: G001_gp1_V10_VRC01c_2021-0090 (antibody, V domains shown)
VH: not shown
VL: DNQMTQSPSSLSASVGDRVTITCRASQGISNSLAWYQQKPGKAPKLLLYASSRLESGVPSRFSGSGSGTDYTLTISSLQPEDFATYYCQQYETFGQGTKVEIK
B13: G001_gp1_V10_VRC01c_182 (antibody, V domains shown)
VH: QLQLVQSGAEVKKPGASVKVSCQASGFTFSGHYMHWVRQAPGHGLEWMGWINTNSGGTNYARKFQGRVTMTRDTSISTAYMELSRLRSDDTAVYYCATSVWFGASVWNFDNWGQGSLVTVSS
VL: ENVLTQSPATLSLSPGERATLSCRASQSVSTHNLAWYQQKPGQAPRLLIYGVFSRATGIPDRFSGSGSGTDFTLTISSLEPEDTAVYYCQQYETFGQGTNVEIK
B14: G001_gp1_V08_VRC01c_2021-0082 (antibody, V domains shown)
VH: QVQLVQSGTEVKKPGASVKVSCKASGYTFTGYYIHWVRQAPGQGLEWMGWINPNSGGTNYAQKFQGWVTMTRDTSISTAYMELRRLTSVDTAVYYCARARSGYSSGWYWAYWGQGTLVTVSS
VL: DIQMTQSPSSLSASVGDRVTITCQASQDISNYLNWYQQKPGKAPKLLIYDASNLETGVPSRFSGSGSGTDFTFTISSLQPEDIATYYCQQYEFFGGGTKVEIK
B15: G001_gp1_V10_VRC01c_176 (antibody, V domains shown)
VH: QVQLVQSGAEVKRPGASVKVSCRASGYTFTGYYMHWVRQAPGQGLEWMGWINPNSGGTNYAQKFQGRVTMTRDTSITTAYMELSRLNYDDTAVYYCARGDDSSAWRFHSWGQGTLITVSS
VL: B14 VL with I29S, F93T
B16: G001_gp1_V10_VRC01c_175 (antibody, V domains shown)
VH: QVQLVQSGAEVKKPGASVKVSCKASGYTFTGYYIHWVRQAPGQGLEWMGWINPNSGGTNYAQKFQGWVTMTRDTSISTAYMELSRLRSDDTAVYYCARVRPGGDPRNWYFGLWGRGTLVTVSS
VL: B14 VL with Y91W, E92D, F93T, G96Q, V100L
B17: G001_gp1_V10_VRC01c_160 (antibody, V domains shown)
VH: QVQLVQSGAEVKKPGASMKVSCEASGYTFTDYYMHWVRQAPGQGLEWMGWINPNSGGTNYAQKFQGRVTMTRDTSISTAYMELSRLRSDDTAVYYCATSIRDYLSGKVWYLGLWGRGTLVTVSS
VL: B14 VL with S76T, F93T, G96Q
B18: G001_gp1_V10_VRC01c_166 (antibody, V domains shown)
VH: not shown
VL: B14 VL with E92N, F93T, G96Q, V100L
B19: G001_gp1_V10_VRC01c_168 (antibody, V domains shown)
VH: QVQLVQSGAEVKKPGASVKVSCKASGYTFTGYHIHWVRQAPGQGLEWMGWINPNSGGTNYARKFQGRVTMTRDTSISTAYMELSRLNSDDTAVYYCAFPLGIRTTGRSWYFDLWGRGTLVTVSS
VL: B14 VL with L46I, S63R, F93T
B20: G001_gp1_V10_VRC01c_174 (antibody, V domains shown)
VH: QVQLVQSGAEVKKPGATVKVSCKASGYTLTDYYMHWVRQAPGQGLEWMGWMNPNSGGTNYGRKFQGRVTMTRDTSINTAYMELSRLRSDDTAVYFCARAREKWPFDYWGQGTLVTVSS
VL: B14 VL with S9A, L33V, Y49N, D50G, F93N, G96P, E101D
B21: G001_gp1_V10_VRC01c_181 (antibody, V domains shown)
VH: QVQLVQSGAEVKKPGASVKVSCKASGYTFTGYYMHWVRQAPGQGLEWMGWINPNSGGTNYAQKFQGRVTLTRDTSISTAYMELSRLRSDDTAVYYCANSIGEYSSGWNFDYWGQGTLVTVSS
VL: B14 VL with D50Y, E92G, F93T, G96Q, V100L
B22: G001_gp1_V10_VRC01c_2021-0088 (antibody, V domains shown)
VH: QVQLVQSGAEVKKPGASVKVSCKASGYTFTGYYMHWVRQAPGQGLEWMGWINPNSGGTNYAQKFQDWVTMTRDTSISTAYMELSRLRSDDTAVYFCARVKGHYDSSGGWNFDLWGRGTLVTVSS
VL: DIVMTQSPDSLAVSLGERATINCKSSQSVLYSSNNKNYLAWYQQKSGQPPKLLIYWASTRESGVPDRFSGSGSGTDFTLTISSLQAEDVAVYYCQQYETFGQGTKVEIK
B23: G001_gp1_V10_VRC01c_161 (antibody, V domains shown)
VH: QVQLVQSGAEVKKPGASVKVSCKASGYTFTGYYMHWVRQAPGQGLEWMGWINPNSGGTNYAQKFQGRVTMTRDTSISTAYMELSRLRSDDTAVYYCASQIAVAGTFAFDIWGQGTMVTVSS
VL: DIQMTQSPSTLSASVGDRVTITCRASQSISSWLAWYQQKPGKAPKLLIYKASSLESGVPSRFSGSGSGTEFTLTISSLQPDDFATYYCQQYYTFGQGTKLEIK
B24: G001_gp1_V10_VRC01c_177 (antibody, V domains shown)
VH: not shown
VL: B23 VL with S28T, K50D, S76T, Y92E, Q96P, L100V, E101D
B25: G001_gp1_V10_VRC01c_169 (antibody, V domains shown)
VH: QVHLVQSGAEVKKPGASVKVSCKASGYTFTDDYIHWLRQAPGQGLEWMGWINPYSGGTNYAQKFQGRVTMTRDTSINTAYMELSRLRSDDTAVYYCARYQSTFYFDYWGQGTLVTVSS
VL: B23 VL with I2F, I29L, F83S, Y86F, Y92E
B26: G001_gp1_V10_VRC01c_173 (antibody, V domains shown)
VH: QVQLVQSGADVKKPGASVKVSCKASGYTLTGYYMHWVRQAPGQGLEWMGWINANSGGTNYAQKFQGRVTMTRDTSISTVYMELSRLRSDDTAVYYCAHRAGYCSGGGCSWYFDLWGRGTLVTVSS
VL: B23 VL with I29S, S31G, Y92E, T93A, L100V
B27: G001_gp1_V10_VRC01c_162 (antibody, V domains shown)
VH: QVQLVQSGAEVKNPGASVKVSCKASGYTFSGYYMHWVRQAPGQGLEWMGWINPNSGGTNYAQKFQGRVTMTRDTSISTAYMALSRLRSDDTAVYYCARPAPYDSSGYNWGYWGQGTLVTVSS
VL: B23 VL with I29M, S30N, S31N, S53T, Y92E, L100V, I102V

molecular target: eOD-GT8 (engineered outer domain germline-targeting version 8), monomer (HIV-1 gp120 engineered outer domain, …)

Row | Binder | binding result
1 | B1 | binds
2 | B2 | binds
3 | B3 | binds
4 | B4 | binds
5 | B5 | binds
6 | B6 | binds
7 | B7 | binds
8 | B8 | binds
9 | B9 | binds
10 | B10 | binds
11 | B11 | binds
12 | B12 | binds
13 | B13 | binds
14 | B14 | binds
15 | B15 | binds
16 | B16 | binds
17 | B17 | binds
18 | B18 | binds
19 | B19 | binds
20 | B20 | binds
21 | B21 | binds
22 | B22 | binds
23 | B23 | binds
24 | B24 | binds
25 | B25 | binds
26 | B26 | binds
27 | B27 | binds
